Assay results reported in patent publication US20210107971A1 (UCB, published 2021).
Substitutions are numbered along the chain they refer to. In names and notes the source's numbering stands. One block for each binder: values may come before it.

Experiments:
[1] = molecular target: T1, monoclonal 6470 rabbit Fab; assay: competitive SPR: 6470 Fab pre-incubated with peptide, injected over immobilised human alpha synuclein monomer and fibrils; %inhibition
T1 construct: Fab heavy chain entry carries a C-terminal His tag
T1 sequence (V domain, as listed by the source): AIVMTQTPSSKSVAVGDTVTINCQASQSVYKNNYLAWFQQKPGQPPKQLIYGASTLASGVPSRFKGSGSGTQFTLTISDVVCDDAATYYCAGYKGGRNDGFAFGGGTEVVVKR
Description: (§1) Recombinant human alpha synuclein monomer and pre-formed alpha synuclein fibrils were immobilized on a CM5 chip using a Biacore 3000 instrument (GE Healthcare). Following activation of the carboxymethyl dextran surface by injection of 100 μl of a fresh 1:1 (v/v) mixture of 50 mM N-hydroxysuccimide and 200 mM 1-ethyl-3-(3-dimethylaminopropyl)-carbodiimide at a flow rate of 10 μl/min HBS-EP (GE Healthcare) as running buffer, coupling was achieved by injecting 100 μl of monomer and fibrils, at 5 μM in 10 mM acetate pH 5.0, over separate flow cells. A reference flow cell was activated in the same manner and then all flow cell surfaces were deactivated with a 50 μl pulse of 1 M ethanolamine HCl pH 8.5.
(§2) Peptide solutions were prepared in running buffer at 100 μM and a peptide blank control prepared as a 1 in 100 dilution of DMSO in running buffer. […] Sensograms were recorded for each sample by injecting 30 μl of the mixture at 10 μl/min and recording a report point 5 seconds before the end of the injection. […] Control cycles were alternated with peptide cycles.

[2] = molecular target: T1, monoclonal 6470 rabbit Fab; assay: competitive SPR (Biacore 3000): 1 µM peptide with 50 nM Fab; competitor immobilised human alpha synuclein monomer
Description: as §1, §2

[3] = molecular target: T1, monoclonal 6470 rabbit Fab; assay: competitive SPR (Biacore 3000): 1 µM peptide with 50 nM Fab; competitor immobilised human alpha synuclein fibrils
Description: as §1, §2

[4] = molecular target: T2, purified recombinant human alpha synuclein fibrils (human, UniProt P37840 1-140); assay: SPR, Biacore T200, as in Example 3; Fab injected;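 further: ligands amine-coupled on CM5 chip flow cells, HBS-EP+ running buffer, kinetic data fitted with 1:1 model allowing local bulk contribution and global Rmax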
Description: (§3) Interaction kinetics were determined by using surface plasmon resonance technology on a Biacore T200 instrument. Three different ligands including recombinant full-length human alpha synuclein monomer, purified recombinant human alpha synuclein fibrils, and purified recombinant mouse alpha synuclein fibrils, prepared as described herein, were each immobilized on three different flow cells of a CM5 chip surface using amine-coupling chemistry. The three ligands were prepared in 10 mM NaAc, pH 3.5, and immobilized onto separate flow cell surfaces to reach an immobilization level of about 30 response units (RU) for alpha synuclein monomer, about 40 RU for human alpha synuclein fibrils, and about 300 RU for mouse alpha synuclein fibrils respectively, at a flow rate of 10 μI/min. The buffer HBS-EP+(GE healthcare Bio-Sciences AB) was used as running buffer for both ligand immobilization and kinetics assay. […] The surface was regenerated by one injection of 50 mM HCl for 90 s at 10 μI/min, and another injection of 50 mM HCl for 60 s at 10 μI/min. The data were analyzed using the Biacore T200 evaluation software (version 3.0) using the bivalent analyte model with assumed no bulk contribution (RI=0) and global Rmax for IgG format, and 1:1 model with flexible bulk contribution (local RI) and global Rmax.

[5] = molecular target: T3, recombinant full-length human alpha synuclein monomer (human, UniProt P37840 1-140); assay: SPR, Biacore T200, as in Example 3; Fab injected;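 further: ligands amine-coupled on CM5 chip flow cells, HBS-EP+ running buffer, kinetic data fitted with 1:1 model allowing local bulk contribution and global Rmax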
Description: as §3

[6] = molecular target: T2, purified recombinant human alpha …; assay: affinity for human alpha synuclein fibrils, IgG4P; method not given
[7] = molecular target: T2, purified recombinant human alpha …; assay: cell-based or functional assay
[8] = molecular target: T2, purified recombinant human alpha …; assay: SPR, Biacore T200, as in Example 3; full-length IgG4P injected
Description: as §3

[9] = molecular target: T3, recombinant full-length human alpha …; assay: as above
Description: as §3

binding result [1]: no binding
B1: AS127-136 (peptide)
peptide: Ac-MPSEEGYQDY-NH2
notes: Synthetic peptide of human alpha synuclein

binding result [1]: no binding
Binder: Ac-SEEGYQDYEP-NH2 (peptide, UniProt P37840 129-138, looked up, synthetic 10-mer peptide) [129-138]

binding result [1]: no binding
B2: AS109-118 (peptide)
peptide: Ac-QEGILEDMPV-NH2
notes: as for B1

binding result [1]: no binding
Binder: Ac-PVDPDNEAYE-NH2 [AS117-126]

binding result [1]: no binding
Binder: Ac-EGYQDYEPEA-OH (peptide, UniProt P37840 131-140, looked up, synthetic 10-mer peptide) [131-140]

% inhibition [2]: 37%
% inhibition [3]: 54%
B3: AS123-132 (peptide)
peptide: Ac-EAYEMPSEEG-NH2
notes: as for B1

binding result [1]: no binding
B4: AS111-120 (peptide)
peptide: Ac-GILEDMPVDP-NH2
notes: as for B1

% inhibition [2]: 34%
% inhibition [3]: 52%
B5: AS125-134 (peptide)
peptide: Ac-YEMPSEEGYQ-NH2
notes: as for B1

Kd [4]: 18.8 nM
koff [4]: 0.0895 s⁻¹
kon [4]: 4.75e+06 M⁻¹ s⁻¹
Kd [5]: 50.4 nM
koff [5]: 0.151 s⁻¹
kon [5]: 2.99e+06 M⁻¹ s⁻¹
B6: 6470 rabbit Fab with light chain mutation Y30W (Fab, V domains shown)
VH: QSVEESGGRLVTPGTPLTLTCTVSGIDLSSHDMYWVRQAPGKGLEYIGAIYASGSTYYASWAKGRFTISKTSTTVDLKMTSLTTEDTATYFCARIHYGNSGGLWGQGTLVTVSS
VL: AIVMTQTPSSKSVAVGDTVTINCQASQSVWKNNYLAWFQQKPGQPPKQLIYGASTLASGVPSRFKGSGSGTQFTLTISDVVCDDAATYYCAGYKGGRNDGFAFGGGTEVVVKR

Kd [6]: 0.316 nM
B7: 6470gL3gH46 (antibody, V domains shown)
VH: EVQLLESGGGLVQPGGSLRLSCAASGIDLSSHDMYWVRQAPGKGLEYIGAIYASGSTYYASWAKGRFTISRDNSKNTVYLQMNSLRAEDTAVYYCARIHYGNSGGLWGQGTLVTVSS
VL: DIQMTQSPSSLSASVGDRVTITCQASQSVYKNNYLAWFQQKPGKAPKQLIYGASTLASGVPSRFSGSGSGTQFTLTISSLQPEDFATYYCAGYKGGRNDGFAFGGGTKVEIKR

IC50, inhibition of alpha synuclein aggregation induced by fibrils in HEK293F cells expressing alpha synuclein (% pSer129+ cells) [7]: < 5 nM
Kd [8]: 0.068 nM
koff [8]: 7.08e-05 s⁻¹
kon [8]: 1.04e+06 M⁻¹ s⁻¹
Kd [9]: 4.62 nM
koff [9]: 0.00445 s⁻¹
kon [9]: 966000 M⁻¹ s⁻¹
B8: VR6470 gL3; gH23-S56N-N102H (antibody, human IgG4 S228P, kappa, V domains shown)
VH: B7 VH with A24V, S56N, N102H
VL: B7 VL
notes: Full-length humanized human IgG4P

Kd [6]: 0.547 nM
B9: 6470gL6gH23 (antibody, V domains shown)
VH: B7 VH with A24V
VL: B7 VL with Q48S

Kd [6]: 0.246 nM
B10: 6470gL8gH23 (antibody, V domains shown)
VH: B7 VH with A24V
VL: B7 VL with Q72D

Kd [6]: 22.3 nM
B11: 6470gL3gH27 (antibody, V domains shown)
VH: B7 VH with A24V, G49S, R71K, N73S
VL: B7 VL

Kd [6]: 0.58 nM
B12: 6470gL3gH50 (antibody, V domains shown)
VH: B7 VH with N73S, V78L
VL: B7 VL

IC50, inhibition of alpha synuclein aggregation induced by fibrils in HEK293F cells expressing alpha synuclein (% pSer129+ cells) [7]: < 5 nM
Kd [8]: 0.059 nM
koff [8]: 7.44e-05 s⁻¹
kon [8]: 1.25e+06 M⁻¹ s⁻¹
Kd [9]: 4.1 nM
koff [9]: 0.00488 s⁻¹
kon [9]: 1.19e+06 M⁻¹ s⁻¹
B13: VR6470 gL3; gH36-S56N-N102H (antibody, human IgG4 S228P, kappa, V domains shown)
VH: B7 VH with A24V, S56N, N73S, V78L, N102H
VL: B7 VL
notes: as for B8

IC50, inhibition of alpha synuclein aggregation induced by fibrils in HEK293F cells expressing alpha synuclein (% pSer129+ cells) [7]: < 5 nM
Kd [8]: 0.053 nM
koff [8]: 0.000126 s⁻¹
kon [8]: 2.39e+06 M⁻¹ s⁻¹
Kd [9]: 1.31 nM
koff [9]: 0.00648 s⁻¹
kon [9]: 4.97e+06 M⁻¹ s⁻¹
B14: VR6470 gL3-N33R; gH36-S56N-N102H (antibody, human IgG4 S228P, kappa, V domains shown)
VH: B7 VH with A24V, S56N, N73S, V78L, N102H
VL: B7 VL with N33R
notes: as for B8

Kd [6]: 0.3 nM
B15: 6470gL3gH26 (antibody, V domains shown)
VH: B7 VH with A24V, I48V, R71K, N73S
VL: B7 VL

Kd [6]: 5.28 nM
B16: 6470gL3gH35 (antibody, V domains shown)
VH: B7 VH with A24V, R71K, N73S, R97K
VL: B7 VL

Kd [6]: 0.377 nM
B17: 6470gL6gH36 (antibody, V domains shown)
VH: B7 VH with A24V, N73S, V78L
VL: B7 VL with Q48S

IC50, inhibition of alpha synuclein aggregation induced by fibrils in HEK293F cells expressing alpha synuclein (% pSer129+ cells) [7]: < 5 nM
Kd [8]: 0.056 nM
koff [8]: 0.000116 s⁻¹
kon [8]: 2.07e+06 M⁻¹ s⁻¹
Kd [9]: 1.71 nM
koff [9]: 0.00594 s⁻¹
kon [9]: 3.48e+06 M⁻¹ s⁻¹
B18: VR6470 gL3-N33R; gH23-S56N-N102H (antibody, human IgG4 S228P, kappa, V domains shown)
VH: B7 VH with A24V, S56N, N102H
VL: B7 VL with N33R
notes: as for B8

Kd [6]: 0.198 nM
B19: 6470gL8gH36 (antibody, V domains shown)
VH: B7 VH with A24V, N73S, V78L
VL: B7 VL with Q72D

% inhibition [2]: 20%
% inhibition [3]: 27%
B20: AS121-130 (peptide)
peptide: Ac-DNEAYEMPSE-NH2
notes: as for B1

binding result [1]: no binding
B21: AS119-128 (peptide)
peptide: Ac-DPDNEAYEMP-NH2
notes: as for B1

binding result [1]: no binding
B22: AS104-113 (peptide)
peptide: Ac-EEGAPQEGIL-NH2
notes: as for B1

binding result [1]: no binding
B23: AS113-122 (peptide)
peptide: Ac-LEDMPVDPDN-NH2
notes: as for B1
